# In the domain aggregation screens of Martell et al. (2025):
# Assay: soluble fraction after stress (log2 fold change); higher = more stays soluble; pooled small domains, quantitative proteomics
# Conditions: stress: 50 degC
# Outline: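 The measure of aggregation propensity here is the base-two logarithm of the fold change in the soluble amount of each protein after stress. A higher value means more of that protein stays in solution. Stress was applied at 50°C to pooled libraries of small protein domains, read out by high-throughput quantitative proteomics.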
row,Sequence,soluble fraction (log2)
1,HMKTATAKIKATPFGWLRVRETPSLNGAEIARVNSGESYKILERGEGWIKIKVSDTVEGWVSEAYVELS,-0.102
2,HMLSKEERRSQLLDLGVRLLSTRSLDELSIDLLAEEAGISRGLLYHYFGNKHDFHEAVVRRAADDLI,-1.75
3,HMTEKIEWYKEVLELEPNSKVFFPLARMLAEEQRFDEAVAVLEHGLERHGEFLEARLFFIELLHET,-3.69
4,HMTSKIIIGDSYSKINKLLGEPENMKKRKFLDNEYLMVLYSINKKNYRLYFKDNILFELEDI,-0.941
5,HMKNKVTVPKVEGMDKEEAIQALNEVGLGYKAVMQSSDSVAEGKVISQGTAAGKKVDKNTQIIITVSGG,0.00222
6,HMSTMLPFVMRELVELVMKKKALPLGDALYYIYSSKLYKSLLDKSTKLWYSSTLSLYETLEKEKTEEKRRY,-1.79
7,HMTDKLIAYSVDGILNVITSEAQSVKVYAIDGRLVRILQLGEGRNEVSGLAKGIYIVDNRKVAV,-1.71
8,HMSAMKYTSEVFQRLSRGQFISSNSIDAETRAIYSDIEENQQEYEDYFSKIDFLLSSGDGFYYFSRK,-2.4
9,HMLQLKEPLKKVYERLTPVPKTAETILAELWEKGEYLDIAALHRALMELELSGYVRQSSPGYFGTSA,-0.096
10,HMEIDMQEGIKTIILMMKEHNITPSEAMKIYKSANGDIHYISKIYNHFKNKGADNFVALMIKMVKPGEFIE,-0.00191
11,HMGGLENNLKQARNRVGLTQSELARQAGISRQAYSSLESGAANPSTEVALRLAQALSERVESLFYLPE,-0.0819
12,HMLSLKAQVYEIIRQKILQQEYALGEKINIDTVADELKISNSPIREALMMLSQDGLIEMVPNNGARVI,-0.772
13,HMSTPLPTGLPRGTIIEYTVQTDETLAIIAAKFNSTVDDIMTRNKITDPNTIYAGQILKVAINLVTP,0.15
14,HMSGRSVSYSEFMSRVEAGQVSSVTLDGERVEVTGSDGSRYVTIAPSDATLTDKLVAKGVEVRADP,0.102
15,HMIPLPEDVASMRERLALTPEKADELFGLEDGSFARYEHGEEKVPFVVFQLLWLLGKYPHLIGELR,-0.818
16,HMISVENLSNREFEIFQLIGNGFSTKEMAKKLNLSIYTVESHKKNIKEKLKLKNSSDLSKYAIQWVIMQN,-0.503
17,HMPNDYRKKLEILAKEKGAEYLHTMLTEVDPKSALQIHTNNIKRTIRALEFYHQTGMKISEHNEAEREK,0.0272
18,HMSAEDYLERIHELIESKGTAHVADIAQSLGVGKPSVTSMVQKLADEGYLNYEKYRSLTLTDSGRSIA,0.105
19,HMKPLIIPLELMQRLSSDKQLEAGFNRFSKSKQHEFAAYIAAAKRVETKVKRLEKIIPLILSGEGLNDR,-1.36
20,HMTRQNTAVQQSDMAHHKASELTEGMSIVHSHFGRGTIISIETADDPRVTVDFSSEGRKTMLLRFAKFAIE,-0.118
21,HMERDIATKHEVNRTVEAYSDIVKTLNLPSHKINLVEISFFNILKRSKPSPRENSILLGLAQKIKLHLEKK,-0.477
22,HMLDGFEVGMTVMKKSGTEIGFTGWPSFADKDELPIIERIDTSDSTLLLKFKDMSWWIKASLVEPS,-1.62
23,HMTTQTTKYVNTTAGLNVRTGPSTSYAKIVTLSYGQSVNVLSTSNGWSKINYNGSTGYVSSQYLQSTKPS,-0.619
24,HMIVSEYIIIGGDKKEYGPVSMGEVGEWVQGGRANGDSKIKKVGTEEWGRLRDFPEFSAYLS,-0.00369
25,HMQVAPDLMQRLTSQGHVDEKLSDALVHARQITNFEGRRRQMQFIGKLMRKLSEESIEAVKDALNEQRM,-0.264

row,Sequence,soluble fraction (log2)
1,HMKYWTISDLYSKLEEDQVELGAFSEDSNKVTVLDRQGYEHVIKILSSDVPALTELFRKKKVRFAVAG,-0.132
2,HMEYMKQRLYDIIELFKRSFSPSFSEEEKKKLENVLQDDFLRKAYEQLSDEVFIEEKFREFDGY,-1.73
3,HMVLENLKKFIDSKGISVSAFEKSIGMSNNSFRKSLNSGGHIGSDKLENILKIYPELNPVWLLQGEGEML,-0.27
4,HMIKNDIGKFIKLYRETHQWSQRELAEHLGVSQRNVSYYEKGERIPPADVLKKLSTLFDVPVDVLLGLK,-0.43
5,HMRTVAERYGLTAGQWRVLELLTQGKTNRQIAEMLDVTEGTVKIHVSAIFKAMKVTNRTQALLLAKKH,-0.558
6,HMRYWVKSETDFLIENRGKYSYQEFADMLGRSYAVVYDKMHQLKIDYTKEELEIFDEKHKAQMREKQQR,-1.52
7,HMNDVGKVLNQLGERDRMILLLTYWDELPLKEAARILEVSENNAKIILFRARSRFASLWSAGS,-3.13
8,HMINLNEVLANFQKSYPNLAGFKYDQGMDALVYEGNYIRLNGYMLSRINPTLFSMSPDDIFTYLKNGF,-2.53
9,HMEKKEWVIYITGAVKKPGVYRIPEGARVYQALEAAGGFTPEADRDAVNLAAMLQDGAHIKFPAVGEEV,0.117
10,HMNQKKFIQADYEDRLFDHLAFEVKDMEKIISMMRREKFTITDEPFRLSPTGSLIAFVEDPDRTLIELIER,-0.32
11,HMEAYSAEAVRFRIKAMIESETVDDVMSDDKIVERLLADGVDIARRTVAKYREAMNIPSSVKRRRKLKGM,-1.53
12,HMNPLHYKAAHWVREGLFDDLKSFVELETRINSIFEEKDRGDVFEIFIEGYRSFSKWRALVLRLA,-0.28
13,HMPNIHVVFAEEWTDRRLDKVLSEYFDGYSRSFIKKLFDDGLILVNSKAVKPSYKVRAGDMIDISVPDPV,-0.646
14,HMENYQIETFVKFIEESTGEDGVAFEDLFQNFTSRPAVITMFLALLEALRRNSIRIFQKEEFSQILIYPK,0.084
15,HMKDASEFLGAKGKTITPLRPTGAAVINGEKVDVLAEGEFIPKNAEIVVIKVEGSKIIVRNANN,0.143
16,HMATPAFEMYKVRRGDTPAGLAKEWGFPDMASFYRINPDARSDWKRGLQLVKPMNEMAVLQATA,-0.255
17,HMSQTDQALRHLIREAWATLPQRQQQAVELAYYEGLPDTEIAARLNQPVEEVKTSIVLGMAHLREALHSY,-0.583
18,HMSIQMPDLSITPVTDAKKKIESLQLQYKEVGEYNDSVIAGYVIRTEPASGSYLNEDEEVIIYVSKG,-0.246
19,HMVNIEAEVGRRLRQLRARRGLSLRALADLSGLNVNTLSLIENSKTSPSVSTLQQLARSLQVPITTFFESD,-0.447
20,HMPKLTKEEIQFIDNYLKNSGVEYIDTRAEVVDHVASEIESRLSANNTTNFYEEFKVYMVQHKETLLK,-0.49
21,HMDSLELADEVGRVSEALQELRPHQREVLELSLVHGRSHQQISEKTGLALGTVKSHARRGLMRVREMLGV,-0.445
22,HMVRRSERLHALTESLRRSGNRGRTAEQLATEFEVSVRTIKRDLVALEASGLPLWSRPGPGGGYGLLS,-1.02
23,HMNENDENLRQQAIDASKEVRRWGEPVTLPPMNAHDRRIIHITLEGESDLQTESTGEGNFKSVVISLK,-0.111
24,HMGGNVYAYRLTASVKSGEQIPANKIEKVKMLSSDLPTNYVPDTVNVTAYKSKLDLQAGTILSTSLLYEN,0.0242
25,HMAEQVLHQKLAARRKELNSLVAQVARVRGIPHSHVHSGLRREAGGPPLAQATTDQVEARISLARKWLRA,-0.728

row,Sequence,soluble fraction (log2)
1,HMQSEESTHIGERMLNQALRAMHVEPSAVKEKQWEKLIRDYSVKNKQDILTDIGLGKRQSVMVAHQLLAI,0.0574
2,HMTSLSYINDLVTGATAQGLYRIVVPNQFMDDNMANVLRRTYGYQVQSRTSLMGTFDDYIISWAPPM,-2.45
3,HMAHETIDVAALRVGMFVQLDLGWLSHPFPLSSFRISSEDQIATIRALGLKRVRWSSEQSDS,-4.29
4,HMRRSSQQLTLTEVSTIKEMVTSEEYRHVPTGTLALLAQRLRKVFASSSTWYRLVRIYKWRRPRGRIH,0.549
5,HMPDAGQRRYLELVTALAGARSLTIDDLERRAIRFAEWGNGYSGRTARQFIDTLLQDRGVAEEL,-0.405
6,HMPMIQHFHRMISAALGISEKQIVQTLGLLNDGATIPFISRYRKEVTGGLDEVQIESIKTHYEKLNEIAK,-1.52
7,HMVNVLKNSTVIDLVKNNLSDALIISLIRRAKVDFSLMTDDVIELSGKGVSPAVIMEMRQAMIRQASEIQN,-0.145
8,HMGKSPLDALSAREKEVLTYITRGVSINDIAAVLYLSPKTVSTHKTNLMQKLGIENNADLILFGVNHGLND,-0.513
9,HMEVPDTIIRLRELVAAMPEQWQKVYRLVFMEGLSKAKAGKKIGISDVRVGQLVKKINAAIAGDETLK,-0.714
10,HMDEQKNREIALIENIQREDLNPYEKALGIRNLMDKYGLTQEEVSKRIGKSRSAVSNTVRILNLAPDVL,0.0391
11,HMGPSSIVVYVSGAVKTPGVYTLAPGSRVDDAVRAAGGLSERAESAGTNLAAQLSDGEHVHVAAAGE,0.228
12,HMSEPQYKVLFSNLDDRDGGAIVTALGAMNVPYKYNDTGTALLVPADRVYDARLQLASQGLPRG,0.18
13,HMLKETGVITASVLNVREDIGTSSNIVAQLKKGMEVNILESRAIAGSETWYRIDAGSIKGWIFGDYI,-3.62
14,HMASLIGEEKALQIALEHAGVALENVAYSQVKLENDDGRWEYDTEFYSGSKEYDYEIDASTGEILGYDHD,-0.0337
15,HMDFNDPTMEKSLVELPAMSNSTLRDLSENNIKKLEELAEMSVGELMDIASKISESDASALIMEARKPWF,-0.137
16,HMGRKIDDPSSMTGAEKAAVILLALGDEQRQLWEMMDDEEIRVVSQAMVNLGNVTSGAVEKLIMEFVGSMS,-0.243
17,HMEYEETMSQIKHNLNLLPRQQRVIIEMAKFDELTPAEIAKQLGISVQTVRNQLSTGLKKLRQLL,-0.0252
18,HMQQVLGDVNEDDKVDFLDAIVVLRHDAEIIQLTDNQMKAAEVNKDGKVDFLDAIMILRYDAEIIGS,-0.0952
19,HMENKLIELTLSLDKSERLDKILTQELSHTRSVIQQWLKSGFVSVNGEIVKANYKAKDGDHVTIQIE,-0.198
20,HMQGNGKVATELLKDIIASDNLYINAMRMLVMHYNSKGTNQVEMVKLLHNILDLVPDDEYANEILKSAKKA,-0.327
21,HMHVGVWIMNEKGEILLEQRASNKKVDPNKWARIGGHVDAGEKPIQAIQREILEEIGVKIPLENFIVLET,-0.335
22,HMYPMQNYSTIIGVIELRQQSVGYATTQKRYGIGSSTVTLIMKRFKELGLTLEELRAMPPKAVEVAFYPPE,-1.11
23,HMPTTNIRAFRLREADPESVKEALSMVMPKTSIYVDARTKSVLVVGLLDELARAAEIVALIDQP,-0.79
24,HMHRTRNAERTRAAVLKAAAEVLAERGTGASLARIAEVAGVSKSGLLHHFANREQLIVALLED,-0.984
25,HMSIEIKTIDVKHADLFQLQDILRNLYPELNIVPDQRNNKLILQGKRELLVEAERLTLQLDTE,0.0556
